According to publication PMC314469, “Protein Interaction Networks by Proteome Peptide Scanning” (PLoS Biology, 2004):

T1: Boi1 SH3 (BOI1_YEAST), P38041
T1 chain: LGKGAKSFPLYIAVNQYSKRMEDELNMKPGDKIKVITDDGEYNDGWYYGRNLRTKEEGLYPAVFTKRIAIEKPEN

T2: Rvs167 SH3 (RV167_YEAST), P39743
T2 chain: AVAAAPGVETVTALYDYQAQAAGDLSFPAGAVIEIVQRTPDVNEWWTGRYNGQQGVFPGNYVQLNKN

T3: Boi2 SH3 (BOI2_YEAST), P39969
T3 chain: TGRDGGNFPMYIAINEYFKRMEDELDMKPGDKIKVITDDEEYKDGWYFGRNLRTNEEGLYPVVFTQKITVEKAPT

T4: Yfr024 SH3 (LSB3_YEAST), P43603
T4 chain: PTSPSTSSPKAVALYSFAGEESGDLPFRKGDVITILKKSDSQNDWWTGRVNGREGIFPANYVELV

T5: Yhr016c SH3 (YSC84_YEAST), P32793
T5 chain: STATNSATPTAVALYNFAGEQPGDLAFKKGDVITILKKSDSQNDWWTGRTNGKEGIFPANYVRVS


Target: T1, Boi1 SH3 (BOI1_YEAST), P38041
Assay: SPOT array

Binder	normalised SPOT signal, Boehringer light units (BLU); mean over the file's lines of this peptide
VPEPSKPSRLLLVR [YNL034W 549-562]	61.9
VPPPNVPKKDKREV [YBR058C 659-672]	294
VPSPIVPNKMRKQL [YKL052C 214-227]	530
VQQPEDPLRVLGEY [YDR469W 143-156]	24.5
VPDPSTPSKPNLEV [YML016C 62-75]	16.2
VLEPSKPYKKNPFM [YBR284W 663-676]	116
VTLPTGPAKIIWEK [YHR007C 510-523]	94.8
VPRPSPPIRRKSST [YNL106C 1070-1083]	494
VKHPMKPFRLMLTD [YGL194C 43-56]	101
VKKPARPWRAKPGQ [YKL220C 450-463]	90.9
VMKPKSPDKEFFDA [YJR066W 1483-1496]	90.1
VMVPHLPGKILLSN [YOR357C 104-117]	253
VTLPISPSRASISF [YGL235W 70-83]	52.6
VTKPVVPKKTKKSA [YLR087C 319-332]	164
VSDPYVPTRNTFNY [YDL020C 142-155]	174
VSPPFFPEKELNNR [YKR010C 454-467]	41.2
VSTPPVPKKFQEIF [YDL107W 9-22]	62.2
VPSPGLPEKVNEKS [YLR119W 34-47]	80.3
VKRPLSPTRINGKS [YDR379W 155-168]	208
VSIPFDPSKDTFDH [YEL031W 741-754]	105
VNTPREPVRSSSKI [YJL076W 1015-1028]	75.8
VQTPHVPDRPPSQL [YPR104C 731-744]	53.1

Target: T2, Rvs167 SH3 (RV167_YEAST), P39743
Assay: SPOT array

Binder	normalised SPOT signal, Boehringer light units (BLU); mean over the file's lines of this peptide
VPEPSKPSRLLLVR [YNL034W 549-562]	23.1
VPPPNVPKKDKREV [YBR058C 659-672]	124
VPSPIVPNKMRKQL [YKL052C 214-227]	202
VQQPEDPLRVLGEY [YDR469W 143-156]	37.1
VPDPSTPSKPNLEV [YML016C 62-75]	19.5
VLEPSKPYKKNPFM [YBR284W 663-676]	5.8
VTLPTGPAKIIWEK [YHR007C 510-523]	24.1
VPRPSPPIRRKSST [YNL106C 1070-1083]	3250
VKHPMKPFRLMLTD [YGL194C 43-56]	358
VKKPARPWRAKPGQ [YKL220C 450-463]	49.8
VMKPKSPDKEFFDA [YJR066W 1483-1496]	48.3
VMVPHLPGKILLSN [YOR357C 104-117]	58
VTLPISPSRASISF [YGL235W 70-83]	25.8
VTKPVVPKKTKKSA [YLR087C 319-332]	1
VSDPYVPTRNTFNY [YDL020C 142-155]	60.9
VSPPFFPEKELNNR [YKR010C 454-467]	32.6
VSTPPVPKKFQEIF [YDL107W 9-22]	53.6
VPSPGLPEKVNEKS [YLR119W 34-47]	-0
VKRPLSPTRINGKS [YDR379W 155-168]	445
VSIPFDPSKDTFDH [YEL031W 741-754]	72.7
VNTPREPVRSSSKI [YJL076W 1015-1028]	69.7
VQTPHVPDRPPSQL [YPR104C 731-744]	52.6

Target: T3, Boi2 SH3 (BOI2_YEAST), P39969
Assay: SPOT array

Binder	normalised SPOT signal, Boehringer light units (BLU); mean over the file's lines of this peptide
VPEPSKPSRLLLVR [YNL034W 549-562]	17
VPPPNVPKKDKREV [YBR058C 659-672]	17.8
VPSPIVPNKMRKQL [YKL052C 214-227]	126
VQQPEDPLRVLGEY [YDR469W 143-156]	16.6
VPDPSTPSKPNLEV [YML016C 62-75]	12.4
VLEPSKPYKKNPFM [YBR284W 663-676]	84
VTLPTGPAKIIWEK [YHR007C 510-523]	19.3
VPRPSPPIRRKSST [YNL106C 1070-1083]	232
VKHPMKPFRLMLTD [YGL194C 43-56]	203
VKKPARPWRAKPGQ [YKL220C 450-463]	88.2
VMKPKSPDKEFFDA [YJR066W 1483-1496]	134
VMVPHLPGKILLSN [YOR357C 104-117]	83.6
VTLPISPSRASISF [YGL235W 70-83]	33.4
VTKPVVPKKTKKSA [YLR087C 319-332]	19
VSDPYVPTRNTFNY [YDL020C 142-155]	23.2
VSPPFFPEKELNNR [YKR010C 454-467]	25.6
VSTPPVPKKFQEIF [YDL107W 9-22]	35.5
VPSPGLPEKVNEKS [YLR119W 34-47]	25.5
VKRPLSPTRINGKS [YDR379W 155-168]	49
VSIPFDPSKDTFDH [YEL031W 741-754]	34.1
VNTPREPVRSSSKI [YJL076W 1015-1028]	30.9
VQTPHVPDRPPSQL [YPR104C 731-744]	55.9

Target: T4, Yfr024 SH3 (LSB3_YEAST), P43603
Assay: SPOT array

Binder	normalised SPOT signal, Boehringer light units (BLU); mean over the file's lines of this peptide
VPEPSKPSRLLLVR [YNL034W 549-562]	1200
VPPPNVPKKDKREV [YBR058C 659-672]	980
VPSPIVPNKMRKQL [YKL052C 214-227]	2650
VQQPEDPLRVLGEY [YDR469W 143-156]	46.1
VPDPSTPSKPNLEV [YML016C 62-75]	136
VLEPSKPYKKNPFM [YBR284W 663-676]	238
VTLPTGPAKIIWEK [YHR007C 510-523]	38.2
VPRPSPPIRRKSST [YNL106C 1070-1083]	23000
VKHPMKPFRLMLTD [YGL194C 43-56]	3950
VKKPARPWRAKPGQ [YKL220C 450-463]	5310
VMKPKSPDKEFFDA [YJR066W 1483-1496]	852
VMVPHLPGKILLSN [YOR357C 104-117]	413
VTLPISPSRASISF [YGL235W 70-83]	951
VTKPVVPKKTKKSA [YLR087C 319-332]	861
VSDPYVPTRNTFNY [YDL020C 142-155]	814
VSPPFFPEKELNNR [YKR010C 454-467]	323
VSTPPVPKKFQEIF [YDL107W 9-22]	695
VPSPGLPEKVNEKS [YLR119W 34-47]	141
VKRPLSPTRINGKS [YDR379W 155-168]	2290
VSIPFDPSKDTFDH [YEL031W 741-754]	0
VNTPREPVRSSSKI [YJL076W 1015-1028]	910
VQTPHVPDRPPSQL [YPR104C 731-744]	4140

Target: T5, Yhr016c SH3 (YSC84_YEAST), P32793
Assay: SPOT array

Binder	normalised SPOT signal, Boehringer light units (BLU); mean over the file's lines of this peptide
VPEPSKPSRLLLVR [YNL034W 549-562]	425
VPPPNVPKKDKREV [YBR058C 659-672]	206
VPSPIVPNKMRKQL [YKL052C 214-227]	191
VQQPEDPLRVLGEY [YDR469W 143-156]	65.5
VPDPSTPSKPNLEV [YML016C 62-75]	157
VLEPSKPYKKNPFM [YBR284W 663-676]	127
VTLPTGPAKIIWEK [YHR007C 510-523]	143
VPRPSPPIRRKSST [YNL106C 1070-1083]	3880
VKHPMKPFRLMLTD [YGL194C 43-56]	3110
VKKPARPWRAKPGQ [YKL220C 450-463]	314
VMKPKSPDKEFFDA [YJR066W 1483-1496]	280
VMVPHLPGKILLSN [YOR357C 104-117]	387
VTLPISPSRASISF [YGL235W 70-83]	79.2
VTKPVVPKKTKKSA [YLR087C 319-332]	136
VSDPYVPTRNTFNY [YDL020C 142-155]	268
VSPPFFPEKELNNR [YKR010C 454-467]	97.4
VSTPPVPKKFQEIF [YDL107W 9-22]	55.4
VPSPGLPEKVNEKS [YLR119W 34-47]	217
VKRPLSPTRINGKS [YDR379W 155-168]	499
VSIPFDPSKDTFDH [YEL031W 741-754]	70.3
VNTPREPVRSSSKI [YJL076W 1015-1028]	99.4
VQTPHVPDRPPSQL [YPR104C 731-744]	845
